Experimental findings from article PMC11055865, “Mechanism of DNA unwinding by MCM8-9 in complex with HROB” (Nature Communications, 2023) are described below.

The chains are these.
B2: MCM8-9 complex (FLAG-tagged MCM8 and MBP-tagged MCM9), wild type (complex)
chain 1: MNGEYRGRGFGRGRFQSWKRGRGGGNFSGKWREREHRPDLSKTTGKRTSEQTPQFLLSTKTPQSMQSTLDRFIPYKGWKLYFSEVYSDSSPLIEKIQAFEKFFTRHIDLYDKDEIERKGSILVDFKELTEGGEVTNLIPDIATELRDAPEKTLACMGLAIHQVLTKDLERHAAELQAQEGLSNDGETMVNVPHIHARVYNYEPLTQLKNVRANYYGKYIALRGTVVRVSNIKPLCTKMAFLCAACGEIQSFPLPDGKYSLPTKCPVPVCRGRSFTALRSSPLTVTMDWQSIKIQELMSDDQREAGRIPRTIECELVHDLVDSCVPGDTVTITGIVKVSNAEEGSRNKNDKCMFLLYIEANSISNSKGQKTKSSEDGCKHGMLMEFSLKDLYAIQEIQAEENLFKLIVNSLCPVIFGHELVKAGLALALFGGSQKYADDKNRIPIRGDPHILVVGDPGLGKSQMLQAACNVAPRGVYVCGNTTTTSGLTVTLSKDSSSGDFALEAGALVLGDQGICGIDEFDKMGNQHQALLEAMEQQSISLAKAGVVCSLPARTSIIAAANPVGGHYNKAKTVSENLKMGSALLSRFDLVFILLDTPNEHHDHLLSEHVIAIRAGKQRTISSATVARMNSQDSNTSVLEVVSEKPLSERLKVVPGETIDPIPHQLLRKYIGYARQYVYPRLSTEAARVLQDFYLELRKQSQRLNSSPITTRQLESLIRLTEARARLELREEATKEDAEDIVEIMKYSMLGTYSDEFGNLDFERSQHGSGMSNRSTAKRFISALNNVAERTYNNIFQFHQLRQIAKELNIQVADFENFIGSLNDQGYLLKKGPKVYQLQTM
chain 2: not shown
notes: MCM8, human; vector pFB-FLAG-MCM8; MCM9, human; vector pFB-MBP-MCM9; Major species is a heterodimer; tetramers and hexamers are also present; also called MCM8-9 heterodimer; dimer-rich MCM8-9; source: MBP tag not cleaved; for the amylose pull-down captured from Sf9 lysate on amylose resin and washed; not shown: FLAG, N-terminal, kept; MBP, N-terminal, kept

The target of data set [1] is B2. As to the kind of experiment: pull-down; MBP-MCM9/FLAG-MCM8 (or pMCM8-9, with or without λ-phosphatase treatment on the resin) immobilized on amylose resin from Sf9 lysate and washed; 1 µg wild type or mutant HROB in 50 mM Tris-HCl pH 7.5, 3 mM EDTA, 100 mM NaCl, 1 h at 4 °C; maltose elution, western blotting. The settings on record: both partners purified.
Data set [2] concerns the molecule itself. As to the kind of experiment: mass photometry; protein alone in solution, no DNA; 50-200 nM final protein in 50 mM Tris-HCl pH 7.5, 100 mM NaCl; oligomeric state of MCM8-9 unchanged with ATP-γ-S.

B1: HROB-L405D (natural protein, human, UniProt Q8N3J3-4 1-646, looked up)
chain: MACSLQKLFAVEEEFEDEDFLSAVEDAENRFTGSLPVNAGRLRPVSSRPQETVQAQSSRLLLLHPTAPSEALGLPDLDLCLPASSTPSADSRPSCIGAAPLRPVSTSSSWIGNQRRVTVTEVLREPARPQSSALHPLLTFESQQQQVGGFEGPEQDEFDKVLASMELEEPGMELECGVSSEAIPILPAQQREGSVLAKKARVVDLSGSCQKGPVPAIHKAGIMSAQDESLDPVIQCRTPRPPLRPGAVGHLPVPTALTVPTQQLHWEVCPQRSPVQALQPLQAARGTIQSSPQNRFPCQPFQSPSSWLSGKAHLPRPRTPNSSCSTPSRTSSGLFPRIPLQPQAPVSSIGSPVGTPKGPQGALQTPIVTNHLVQLVTAASRTPQQPTHPSTRAKTRRFPGPAGIDPHQQSGRSLEDIMVSAPQTPTHGALAKFQTEIVASSQASVEEDFGRGPWLTMKSTLGLDERDPSCFLCTYSIVMVLRKAALKQLPRNKVPNMAVMIKSLTRSTMDASVVFKDPTGEMQGTVHRLLLETCQNELKPGSVLLLKQIGVFSPSLRNHYLNVTPNNLVHIYSPDSGDGSFLKPSQPFPKDSGSFQHDVAAKPEEGFRTAQNLEAEASPEEELPEADDLDGLLSELPEDFFCGTSS
notes: HROB, human; numbers count on: isoform 1 (Q8N3J3-1); not shown: FLAG, C-terminal, kept
As to B1, in data set [1], the binding result was “binds”.

As to B2, the binding result in data set [2] is “binds”.
